Laboratory results taken from patent publication US5574007A, “Polypeptide capable of interacting with thrombin” (Asahi Kasei Kogyo Kabushiki Kaisha, priority 1990, dated 1996).

Assays:
[1] = target: T1, thrombin-catalyzed activation of GDPC (protein C having no Gla domain) (Homo sapiens, UniProt P00734); assay: Same assay with protein C having no Gla domain (GDPC) instead of protein C; type: biochemical; details: calcium ion concentrations of 0 to 5 mM
T1 construct: 3 μl of thrombin (manufactured and sold by Sigma Chemical Company, catalog No. T-6759, 20 ng/μl); purchased Sigma Chemical Company T-6759
Method: (§1) With respect to the polypeptide solutions (0.4 μg/ml) purified and quantitated in Example 1-(5)-(d), the activity of polypeptides to promote the thrombin-catalyzed activation of protein C is measured according to the method described in Example 1-(3). The CaCl2 concentration of 10×Assay buffer is adjusted so that the activities at calcium ion concentrations of 0 to 5 mM are determined. Also, with respect to protein C having no Gla domain (hereinafter referred to as "GDPC") which is prepared by chymotrypsin treatment according to the method of N. L. Esmon [J. Biol. Chem. Vol. 258, pp. 5548-5553 (1983)]and which is used instead of protein C, the activity measurement is carried out within the same range of calcium concentration.

[2] = target: T2, thrombin-catalyzed activation of protein C (Homo sapiens, UniProt P00734); assay: Activity to promote the activation of protein C (Example 9-(4)); type: biochemical; details: peptide solution 10 nM, thrombin 15 nM, protein C 3.2 μM, 37° C., one hour
Method: With respect to the polypeptide purified in Example 9-(3), the activity to promote the activation of protein C is measured according to the following method. That is, 10 μl of a peptide solution (10 nM), 10 μl of thrombin (15 nM), 10 μl of protein C (3.2 μM), 10 μl of 10×Assay buffer [0.5M Tris HCl (pH 7.5) containing 1% BSA, 1M NaCl and 20 mM CaCl2 ] and 60 μl of distilled water are mixed together. The mixture is reacted at 37° C. for one hour, and antithrombin III and hepalin are added at final concentrations of 100 nM and lu/ml, respectively, thereby stopping the reaction. To measure the concentration of activated protein C, the concentration of AMC ([…]) liberated from a 200 μM substrate of Boc-Leu-Ser-Thr-Arg-MCA in a buffer containing 0.05M Tris HCl (pH 8.0) and 0.1M CsCl is measured at an excitation wavelength of 380 nm and a measuring wavelength of 440 nm.

[3] = target: T2, thrombin-catalyzed activation of protein C; assay: Assay of the activity to promote the thrombin-catalyzed activation of protein C (Example 1-(3), fluorogenic substrate Boc-Leu-Ser-Thr-Arg-MCA); type: biochemical, bovine; design: 3 μl of thrombin (manufactured and sold by Sigma Chemical Company, catalog No. T-6759, 20 ng/μl); purchased Sigma Chemical Company T-6759; details: for calcium ion concentration at which the activity is highest: activation of protein C, calcium ion 0 to 5 mM; for activity to promote the thrombin-catalyzed activation of protein C (in words): purified polypeptide from COS-1, calcium ion concentrations of 0 to 5 mM; for amount of activated protein C with reaction time (in words): from D71 strain
Method: 5 μl of the supernatant of the culture of COS-1 cells is transformed by each of plasmids pSV2TMD7 and pSV2TMD8, 3 μl of thrombin (manufactured and sold by Sigma Chemical Company, catalog No. T-6759, 20 ng/μl), 5 μl of 10×Assay Buffer containing 1M NaCl, 30 mM CaCl2, 1% calf serum albumin and 0.5M tris-HCl buffer (pH 8.5) and 29.5 μl of distilled water are mixed together and allowed to stand at 37° C. for 5 minutes, followed by the addition of 7.5 μl protein C (derived from bovine, 0.2 μg/μl) to the mixture. The reaction is conducted at 37° C. for 30 minutes, and terminated by adding 6.25 μl of a stop solution (20 mM tris-HCl buffer, pH7.5, containing 100 mM NaCl, 0.3A280 anti-thrombin III and 100 μg/ml heparin).
The activity of activated protein C is measured by first adding 10 μl of Boc-Leu-Ser-Thr-Arg-MCA (manufactured and sold by Peptide Institute, The Foundation (Japan), 5 mg/ml), 5 μl of 5M CsCl and 495 μl of a substrate reaction buffer (50 mM tris-HCl buffer containing 100 mM NaCl (pH 8.5)), next allowing the reaction to proceed at 37° C. for 20 minutes, then terminating the reaction by adding 55 μl of acetic acid, and finally measuring the concentration of liberated AMC ([…]) by means of a spectrofluorometer (model RF-540, manufactured and sold by Shimadzu Corporation, Japan) at an excitation wavelength of 380 nm and an emission wavelength of 440 nm. The obtained fluorescence intensity is compared with the fluorescence intensity of a solution having a known AMC concentration to determine the amount of the liberated AMC. The value obtained by deducting from this amount the amount of AMC in the case where an aqueous solution containing no polypeptide of the present invention is added, represents the activity of the polypeptide to promote the thrombin-catalyzed activation of protein C. The activity to produce 1 nM of activated protein C per ml of reaction mixture and per minute is defined as 1 u (unit).
as §1

[4] = target: T2, thrombin-catalyzed activation of protein C; assay: Activated protein C formation against reaction time with purified polypeptide (Example 4-(6)); type: biochemical; details: polypeptide purified from Acremonium chrysogenum strains D71 and M31 (Example 6(4))
Method: To 0.02M Tris-HCl buffer (pH 8.5) containing 0.1M NaCl, 0.5 mM CaCl2 and 10 mg/ml BSA are added 50 μg/ml protein C, 5 nM thrombin and 5 nM of each of the purified polypeptides of the present invention, and reacted at 37° C. To each of the reaction mixtures are added 300 μg/ml antithrombin III (manufactured and sold by Sigma Chemical Company, U.S.A.) and 5 mM EDTA to terminate the reaction. Then, the amount of the activated protein C produced by the reaction is determined by the method described in Example 1-(3) in which a synthetic substrate is used.

[5] = target: thrombin-catalyzed conversion of fibrinogen to fibrin (Homo sapiens, UniProt P00734); assay: Anticoagulating activity: clotting time of a fibrinogen solution; type: biochemical; details: polypeptide purified from Acremonium chrysogenum (Example 6(4))
Method: The activity of each of the polypeptides of the present invention to inhibit the thrombin-catalyzed conversion of fibrinogen to fibrin so as to inhibit blood coagulation, is determined by measuring clotting time using Coagulometer KC-10A (manufactured and sold by Heinrich Amelung A.G., Germany). Illustratively stated, to 0.05M Tris-HCl buffer (pH 7.5) containing 5 mM CaCl2 and 0.1M NaCl is added 3.0 μg of fibrinogen (Fraction I, manufactured and sold by Sigma Chemical Company, U.S.A.). To the resultant mixture is added 0 to 50 nM of each of the purified polypeptides of the present invention. Then, 10 nM thrombin is added to the mixture in such an amount that the total amount of the mixture becomes 0.4 ml, and then the coagulation time of the mixture is measured.

[6] = tested on: thrombin-catalyzed platelet aggregation; assay: Platelet aggregation-inhibiting activity (Platelet Rich Plasma, HEMA TRACER IV); type: cell-based; details: polypeptide purified from Acremonium chrysogenum (Example 6(4))
Method: The activity of each of the polypeptides of the present invention to inhibit the thrombin-catalyzed platelet aggregation is evaluated using platelet aggregation measuring apparatus HEMA TRACER IV (manufactured and sold by NIKO Bioscience, Inc., Japan). Measurement is carried out according to the manual attached thereto. When 40 μl of a 20 NIH unit/ml thrombin solution (manufactured and sold by SIGMA Chemical Co., U.S.A., T 6759) is added to 180 μl of a Platelet Rich Plasma (PRP) platelet solution (3×10^5 cells/μl) and incubated, the aggregation of platelets occurs. […] The aggregation of platelets is determined on the basis of the transparency, assuming the transparency of Platelet Poor Plasma (PPP) solution as 100%. The ratio of platelet aggregation is plotted against the incubation time (0 min: the time when thrombin or a mixture of thrombin and one of the polypeptides is added to the PRP solution). It is confirmed that the platelet aggregation is inhibited when one of the polypeptides of the present invention is added.

Substance	activity in the activation of GDPC (in words) [1]	production of activated protein C [2] [pmol]	calcium ion concentration at which the activity is highest [3] [mM]	activity to promote the thrombin-catalyzed activation of protein C (in words) [3]	amount of activated protein C with reaction time (in words) [4]	clotting time of fibrinogen solution against amount of polypeptide (in words) [5]	thrombin-catalyzed platelet aggregation (in words) [6]	Specific activity ([3]; COS-1 culture supernatant, activity per amount of polypeptide by ELISA) [u/mg]	specific activity (in words) ([3]; deletion mutants expressed in COS-1 cells)	amount of activated protein C with reaction time (in words) ([3]; purified by DIP-thrombin column (Example 8(2)))	amount of activated protein C with reaction time (in words) ([3]; purified by anti-TM monoclonal antibody column 1 (Example 8(4)))	amount of activated protein C with reaction time (in words) ([3]; purified by anti-TM monoclonal antibody column 2 (Example 8(5)))	Activity ([3]; supernatant of culture of COS-1 cells transformed with the plasmid, 1 u = 1 nM activated protein C per ml per minute) [u/ml]
D123Asp: polypeptide of amino acid residues up to the 516th position of human thrombomodulin (FIG. 55), expressed from pSV2TMD1	low activity	18.6	0.4 to 0.5	high activity									
E456Asp: polypeptide of the 367th to 480th amino acid residues of human thrombomodulin, from cells transfected with pSV2TMD7 or Acremonium strain D71	low activity	18.3	0.4 to 0.5	high activity	increased with the lapse of reaction time	the longer the clotting time	inhibited	5809	same level of specific activity as that of the 115-amino acid polypeptide	increased with the lapse of the reaction time	increased with the lapse of reaction time	increased with lapse of reaction time	1210
